Publication PMC4402694, “A non-canonical mechanism for Crm1-export cargo complex assembly” (eLife, 2015)

B1: GST-Slx9 (natural protein, yeast (S. cerevisiae), UniProt P53251 1-210, looked up)
chain: MVAKKRNTLRSKVSARNSQNFGPDVANNGILDESYDIESDPRAFLHQPKETKKEKLLNRQNTFLSNLKGKSTLNDGIAANFDGISKSSIRRRKRKLREELKPRMQDLLTSLEQEKDLRGIIENSSKDMNNDDDIDMDSKIRFVDTKEMNLKKIEPGSVRIKKNQPNIRNQKGAKALAANETARFNQVLTNQDFQKNPFGALREVIKLQKQ
B2: GST-Ssb1C (domain or fragment, yeast (S. cerevisiae), UniProt P11484 524-613, looked up)
chain: NQAEEFKAADEAFAKKHEARQRLESYVASIEQTVTDPVLSSKLKRGSKSKIEAALSDALAALQIEDPSADELRKAEVGLKRVVTKAMSSR

Experiments:
Details in all cases: both partners purified
His6-Ran = molecular target: T1, His6-Ran (yeast (S. cerevisiae), UniProt P32835 1-219); test: pull-down; GST fusion immobilised on GSH-Sepharose, incubated with 2 µM His6-Ran loaded with GTP, 1 hr at 4°C
T1 construct: Gsp1 (yeast Ran), wild type; loaded with GTP or with GDP before the assay; the two loadings are two assays; also called His6-Gsp1 (Ran) WT; RanGTP; not shown: His6, N-terminal, kept

His6-Ran^QLGTP [1] = molecular target: T2, His6-Ran^QLGTP (yeast (S. cerevisiae), UniProt P32835 1-219, Gsp1Q71L); test: pull-down; GST fusion immobilised on GSH-Sepharose in PBSKMT, incubated with one purified protein (2 µM His6-Ran variant, or 0.5 µM Slx9 or Slx9-1) for 1 hr at 4°C, competing E. coli lysates present; Coomassie or Western
T2 construct: Gsp1 (yeast Ran), GTP-stabilized mutant Q71L, equivalent to human RanQ69L; also called Gsp1Q71L; RanGTP; not shown: His6, N-terminal, kept

His6-Ran^QLGTP [2] = molecular target: T2, His6-Ran^QLGTP; test: pull-down; trimeric export complex formation: GST fusion immobilised on GSH-Sepharose, incubated with 2 µM His6-Ran^QLGTP and 50 nM Crm1-His6 together; competing E. coli lysates present; Coomassie or Western
Crm1-His6 = Crm1-His6 (yeast (S. cerevisiae), UniProt P30822 1-1084); test: as above

| Binder | binding result (His6-Ran) | binding result (His6-Ran^QLGTP [1]) | binding result (His6-Ran^QLGTP [2]) | binding result (Crm1-His6) |
| --- | --- | --- | --- | --- |
| B1 | binds | binds |  |  |
| B2 |  |  | binds | binds |
